Key:
[1] = molecular target: IL2 receptors on lymphocyte populations of human PBMCs (human) (UniProt P01589); assay: cell-based or functional assay
[2] = molecular target: OT-I TCR (ovalbumin(257-264)-specific T cell receptor of OT-1 TCR transgenic mouse CD8+ T cells) (mouse); assay: cell-based or functional assay; details: scale: orders of magnitude higher potency than T5-IL2M6

Sequence of UniProt P01589 (P01589 22-272, chain 1 of 3): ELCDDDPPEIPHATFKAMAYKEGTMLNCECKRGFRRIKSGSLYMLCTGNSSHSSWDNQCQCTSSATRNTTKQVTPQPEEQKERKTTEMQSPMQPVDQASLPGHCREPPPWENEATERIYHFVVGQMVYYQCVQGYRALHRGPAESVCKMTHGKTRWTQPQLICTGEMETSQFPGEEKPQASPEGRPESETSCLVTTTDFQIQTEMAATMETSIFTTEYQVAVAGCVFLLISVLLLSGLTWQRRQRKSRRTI
Sequence of UniProt P01589 (P14784 27-551, chain 2 of 3, further chain): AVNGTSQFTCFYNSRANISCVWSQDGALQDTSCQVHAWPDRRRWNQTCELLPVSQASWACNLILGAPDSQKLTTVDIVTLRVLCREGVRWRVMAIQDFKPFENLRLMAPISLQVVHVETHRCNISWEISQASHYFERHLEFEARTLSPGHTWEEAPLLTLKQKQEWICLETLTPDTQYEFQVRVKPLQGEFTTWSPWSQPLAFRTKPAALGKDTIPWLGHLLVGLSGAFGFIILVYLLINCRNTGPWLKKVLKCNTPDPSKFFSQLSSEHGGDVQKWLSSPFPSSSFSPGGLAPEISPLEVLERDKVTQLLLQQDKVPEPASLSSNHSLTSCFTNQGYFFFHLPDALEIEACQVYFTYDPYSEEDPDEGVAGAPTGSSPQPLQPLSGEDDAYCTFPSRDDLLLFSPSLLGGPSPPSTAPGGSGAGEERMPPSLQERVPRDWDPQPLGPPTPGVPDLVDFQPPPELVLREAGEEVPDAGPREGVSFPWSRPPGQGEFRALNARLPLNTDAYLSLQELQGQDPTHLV
Sequence of UniProt P01589 (P31785 23-369, chain 3 of 3, further chain): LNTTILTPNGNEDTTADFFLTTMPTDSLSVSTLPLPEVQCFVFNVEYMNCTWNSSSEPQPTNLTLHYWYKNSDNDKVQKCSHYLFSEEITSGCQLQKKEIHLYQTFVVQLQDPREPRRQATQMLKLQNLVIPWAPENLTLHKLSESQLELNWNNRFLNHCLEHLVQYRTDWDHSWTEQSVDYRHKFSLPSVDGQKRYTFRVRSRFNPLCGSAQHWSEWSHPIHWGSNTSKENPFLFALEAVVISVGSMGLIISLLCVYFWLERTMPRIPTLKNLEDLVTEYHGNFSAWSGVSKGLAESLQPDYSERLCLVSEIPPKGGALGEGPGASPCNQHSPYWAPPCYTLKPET

Question: How did the potency in STAT5 phosphorylation on multiple lymphocyte populations (FIG. 12A-C), against IL2M0 (fold less potent than IL2M0) [1] turn out when “IL2M2: Human IL2-(GGGGS)4-human IL-2Ra-GGGGS-Fc (Fc fusion)” was run?
Answer: 100

Question: How did the potency in STAT5 phosphorylation on multiple lymphocyte populations (FIG. 14A-C), against IL2M4 (fold less potent than IL2M4) [1] turn out when “IL2M5: Fc-GGGGS-human IL2 (N88D, C125A) fusion (Fc fusion)” was run?
Answer: > 100

Question: How did the potency in inducing STAT5 phosphorylation in CD8+ OT-I T cells, against T5-IL2M6 [2] turn out when “T4-IL2M6: OVA(257-264)-GCGGS-(GGGGS)2-mB2m-(GGGGS)4-mH2Kb-(GGGGS)4-Fc-(GGGGS)3-hIL2(H16A, F42A) (Fc fusion)” was run?
Answer: 2

Reference: patent US20230331800A1
